Source: the supplement of paper PMC10567573

B1: PHTF1 (parent)
chain: SRHLNSQVKKTTTRWCHIVRDSDS
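Also: lentivirally expressed fusions sorted by FACS into six bins by GFP to DsRed ratio, PSI derived from sequencing read proportions per bin multiplied by bin number.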

Variants of: B1
Test: protein stability index of a GFP-peptide fusion (GPS, HEK-293T) (PSI 1-6); higher = more stable
Details: c terminus: a fixed tail appended
SRHLNSQVKKTTTRWCHIVRDFDS [S22F] gave a protein stability index of 1.86. With SRHLNSQVKKTTTRWCHIVRDCDS [S22C] the protein stability index was 1.73. For SRHLNSQVKKTTTRWCHIVRDQDS [S22Q], the protein stability index was 2.65. SRHLNSQVKKTTTRWCHIVRDKDS [S22K] gave a protein stability index of 2.84. In the case of SRHLNSQVKKTTTRWCHIVRDIDS [S22I], the protein stability index is reported as 1.45. In the case of SRHLNSQVKKTTTRWCHIVRDEDS [S22E], the protein stability index is reported as 1.87. In the case of SRHLNSQVKKTTTRWCHIVRDPDS [S22P], the protein stability index is reported as 1.77. SRHLNSQVKKTTTRWCHIVRDADS [S22A] showed a protein stability index of 1.82. SRHLNSQVKKTTTRWCHIVRDLDS [S22L] gave a protein stability index of 1.78. In the case of SRHLNSQRKKTTTRWCHIVRDSDS [V8R], the protein stability index is reported as 1.78. With SRHLNSQFKKTTTRWCHIVRDSDS [V8F] the protein stability index was 2.57. In the case of SRHLNSQKKKTTTRWCHIVRDSDS [V8K], the protein stability index is reported as 1.79. Variant SRHLNSQDKKTTTRWCHIVRDSDS [V8D] has a protein stability index of 2.06. Variant SRHLNSQNKKTTTRWCHIVRDSDS [V8N] has a protein stability index of 1.78. Variant SRHLNSQCKKTTTRWCHIVRDSDS [V8C] has a protein stability index of 2.6. SRHLNSQPKKTTTRWCHIVRDSDS [V8P] gave a protein stability index of 2.18. In the case of SRHLNSQTKKTTTRWCHIVRDSDS [V8T], the protein stability index is reported as 2.1. For SRHLNSQLKKTTTRWCHIVRDSDS [V8L], the protein stability index was 2.07. Variant SRHLNSQHKKTTTRWCHIVRDSDS [V8H] has a protein stability index of 2.22. For SRHLNSQSKKTTTRWCHIVRDSDS [V8S], the protein stability index was 2.61. Variant SRHLNSQWKKTTTRWCHIVRDSDS [V8W] has a protein stability index of 1.34. Work on SRHSNSQVKKTTTRWCHIVRDSDS [L4S] yielded a protein stability index of 2.29. For SRHPNSQVKKTTTRWCHIVRDSDS [L4P], the protein stability index was 2.44. For SRHDNSQVKKTTTRWCHIVRDSDS [L4D], the protein stability index was 1.99. Work on SRHHNSQVKKTTTRWCHIVRDSDS [L4H] yielded a protein stability index of 2.15. In the case of SRHNNSQVKKTTTRWCHIVRDSDS [L4N], the protein stability index is reported as 2.05. For SRHQNSQVKKTTTRWCHIVRDSDS [L4Q], the protein stability index was 2.12. In the case of SRHGNSQVKKTTTRWCHIVRDSDS [L4G], the protein stability index is reported as 1.8. With SRHFNSQVKKTTTRWCHIVRDSDS [L4F] the protein stability index was 3.09. With SRHLNDQVKKTTTRWCHIVRDSDS [S6D] the protein stability index was 2.88. With SRHLNAQVKKTTTRWCHIVRDSDS [S6A] the protein stability index was 2.29. Variant SRHLNQQVKKTTTRWCHIVRDSDS [S6Q] has a protein stability index of 2.61. With SRHLNLQVKKTTTRWCHIVRDSDS [S6L] the protein stability index was 1.68. Variant SRHLNWQVKKTTTRWCHIVRDSDS [S6W] has a protein stability index of 2.5. SRHLNFQVKKTTTRWCHIVRDSDS [S6F] gave a protein stability index of 1.45. SRHLNCQVKKTTTRWCHIVRDSDS [S6C] gave a protein stability index of 1.7. SRHLNVQVKKTTTRWCHIVRDSDS [S6V] gave a protein stability index of 1.94. In the case of SRHLNYQVKKTTTRWCHIVRDSDS [S6Y], the protein stability index is reported as 2.86. Work on SRHLNIQVKKTTTRWCHIVRDSDS [S6I] yielded a protein stability index of 2.22. Work on SRHLNNQVKKTTTRWCHIVRDSDS [S6N] yielded a protein stability index of 2.44. For TRHLNSQVKKTTTRWCHIVRDSDS [S1T], the protein stability index was 2.09. For HRHLNSQVKKTTTRWCHIVRDSDS [S1H], the protein stability index was 1.46. MRHLNSQVKKTTTRWCHIVRDSDS [S1M] showed a protein stability index of 2.52. Work on KRHLNSQVKKTTTRWCHIVRDSDS [S1K] yielded a protein stability index of 2.26. In the case of WRHLNSQVKKTTTRWCHIVRDSDS [S1W], the protein stability index is reported as 2.1. In the case of DRHLNSQVKKTTTRWCHIVRDSDS [S1D], the protein stability index is reported as 3.06. In the case of CRHLNSQVKKTTTRWCHIVRDSDS [S1C], the protein stability index is reported as 2.07. IRHLNSQVKKTTTRWCHIVRDSDS [S1I] gave a protein stability index of 1.23. SRHLESQVKKTTTRWCHIVRDSDS [N5E] gave a protein stability index of 1.59. Work on SRHLLSQVKKTTTRWCHIVRDSDS [N5L] yielded a protein stability index of 1.92. With SRHLCSQVKKTTTRWCHIVRDSDS [N5C] the protein stability index was 2.33. Work on SRHLFSQVKKTTTRWCHIVRDSDS [N5F] yielded a protein stability index of 2.02. SRHLRSQVKKTTTRWCHIVRDSDS [N5R] gave a protein stability index of 3.93. Variant SRHLQSQVKKTTTRWCHIVRDSDS [N5Q] has a protein stability index of 1.92. With SRHLWSQVKKTTTRWCHIVRDSDS [N5W] the protein stability index was 2.27. SRHLNSQVKKTTTRWCHIVRDSDD [S24D] gave a protein stability index of 2.75. With SRHLNSQVKKTTTRWCHIVRDSDR [S24R] the protein stability index was 1.37. With SRHLNSQVKKTTTRWCHIVRDSDY [S24Y] the protein stability index was 1.53. With SRHLNSQVKKTTTRWCHIVRDSDG [S24G] the protein stability index was 2.13. SRHLNSQVKKTTTRWCHIVRDSDE [S24E] gave a protein stability index of 1.9. In the case of SRHLNSQVKKTTTRWCHIVRDSDQ [S24Q], the protein stability index is reported as 2.02. With SRHLNSQVKKTTTRWCHIVRDSDW [S24W] the protein stability index was 1.79. SRHLNSQVKKTTTRWCAIVRDSDS [H17A] gave a protein stability index of 1.42. In the case of SRHLNSQVKKTTTRWCRIVRDSDS [H17R], the protein stability index is reported as 2.58. With SRHLNSQVKKTTTRWCWIVRDSDS [H17W] the protein stability index was 2.62. In the case of SRHLNSQVKKTTTRWCLIVRDSDS [H17L], the protein stability index is reported as 1.7. With SRHLNSQVKKTTTRWCIIVRDSDS [H17I] the protein stability index was 1.65. Variant SRHLNSQVKKTTTRWCKIVRDSDS [H17K] has a protein stability index of 2.59. SRHLNSQVKKTTTRWCGIVRDSDS [H17G] gave a protein stability index of 2.65. Work on SRHLNSQVKKTTTRWCNIVRDSDS [H17N] yielded a protein stability index of 2.43. With SRHLNSQVKKTTTRWCYIVRDSDS [H17Y] the protein stability index was 2.42. SRHLNSQVKMTTTRWCHIVRDSDS [K10M] showed a protein stability index of 2.37. With SRHLNSQVKNTTTRWCHIVRDSDS [K10N] the protein stability index was 2.72. For SRHLNSQVKTTTTRWCHIVRDSDS [K10T], the protein stability index was 1.98. With SRHLNSQVKWTTTRWCHIVRDSDS [K10W] the protein stability index was 1.97. Variant SRHLNSQVKETTTRWCHIVRDSDS [K10E] has a protein stability index of 2.63. Work on SRHLNSQVKITTTRWCHIVRDSDS [K10I] yielded a protein stability index of 1.61. For SRHLNSQVKHTTTRWCHIVRDSDS [K10H], the protein stability index was 2.29. Work on SRHLNSQVKQTTTRWCHIVRDSDS [K10Q] yielded a protein stability index of 2.19. Variant SRHLNSQVKCTTTRWCHIVRDSDS [K10C] has a protein stability index of 2.11. SRHLNSQVKKTKTRWCHIVRDSDS [T12K] showed a protein stability index of 1.82. SRHLNSQVKKTQTRWCHIVRDSDS [T12Q] gave a protein stability index of 2.12. In the case of SRHLNSQVKKTCTRWCHIVRDSDS [T12C], the protein stability index is reported as 2.19. In the case of SRHLNSQVKKTVTRWCHIVRDSDS [T12V], the protein stability index is reported as 1.94. In the case of SRHLNSQVKKTITRWCHIVRDSDS [T12I], the protein stability index is reported as 1.93. With SRHLNSQVKKTWTRWCHIVRDSDS [T12W] the protein stability index was 2.36. For SRHLNSQVKKTHTRWCHIVRDSDS [T12H], the protein stability index was 1.31. Variant SRHLNSQVKKTTTRWCHIARDSDS [V19A] has a protein stability index of 2.8. SRHLNSQVKKTTTRWCHIQRDSDS [V19Q] showed a protein stability index of 2.81. Work on SRHLNSQVKKTTTRWCHISRDSDS [V19S] yielded a protein stability index of 2.75. For SRHLNSQVKKTTTRWCHIMRDSDS [V19M], the protein stability index was 2.94. In the case of SRHLNSQVKKTTTRWCHINRDSDS [V19N], the protein stability index is reported as 2.55. SRHLNSQVKKTTTRWCHIWRDSDS [V19W] showed a protein stability index of 1.62. In the case of SRHLNSQVKKTTTRWRHIVRDSDS [C16R], the protein stability index is reported as 2.86.
